The assay concerns the target NLS-HSA (SV-40 large T antigen NLS peptide coupled to human serum albumin) (human | SV-40) (UniProt P02768). In words: pull-down.

Bounds are passed on as bounds.

Turning to Xenopus Nup62 (natural protein), the percent of the protein in the extract bound is < 1%.
